Three molecules from publication PMC10214526 (ACS Central Science, 2023) can be followed below.

Experiment [1] has as its target T1, GABARAP (UniProt O95166 2-116).
T1 construct: GABARAP as used in fluorescence polarization and in the cocrystal
The experiment can be described thus: fluorescence polarisation; fluorescein-modified LIR^ATG3 peptide (linear, cyclized or truncated 103–111) with GABARAP or LC3A; triplicates; KD by nonlinear regression. The settings on record: both partners purified. Background: In fluorescence polarisation assays a small probe gives low polarisation when free and higher when bound to something large.

Experiment [2] concerns the target T2, GABARAP(ΔG116)–NHNH methyl-fumarate 2 (UniProt O95166 1-115, C-terminal acyl hydrazide: -NHNH methyl fumarate (mimics the native glycine G116)).
T2 construct: GABARAP; GABARAP(ΔG116): the C-terminal glycine G116 is deleted, so the chain ends at residue 115; it may fit a chain without the first methionine (surmised); also called probe 2; GABARAP methyl fumarate; not shown: Mxe GyrA intein, C-terminal, cleaved
The experiment can be described thus: cross-linking; competition: probe 2 (15 μM) incubated with ATG3 C1 in the presence of increasing amounts of LIR^ATG3 peptide; GABARAP–ATG3 C1 complex quantified by gel densitometry, normalized to the reaction without peptide; IC50 by nonlinear regression. Conditions: both partners purified.

Where no end group is shown, it is not given here.

T2 sequence (O95166 1-115, stated change not applied): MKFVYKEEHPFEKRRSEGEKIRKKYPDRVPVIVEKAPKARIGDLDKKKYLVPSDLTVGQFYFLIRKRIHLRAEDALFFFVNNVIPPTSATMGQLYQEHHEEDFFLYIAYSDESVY
T1 sequence (O95166 2-116): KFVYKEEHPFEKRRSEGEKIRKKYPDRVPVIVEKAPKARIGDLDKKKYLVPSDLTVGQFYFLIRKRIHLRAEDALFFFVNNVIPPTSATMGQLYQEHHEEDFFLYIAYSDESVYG

B1: fluorescein-modified truncated (103–111) LIR^ATG3 peptide (peptide, UniProt Q9NT62 103-111, looked up)
peptide: GDGGWVDTY
modifications: also: fluorescein, position not given here
notes: ATG3, human, amino acids G103-Y111 including the core LIR motif; also called truncated peptide
B1: in experiment [1], the binding result is recorded as “binds”.

B2: LIR (L94-H112) peptide 5 (peptide, UniProt Q9NT62 94-112, looked up)
peptide: LEAIIEEDDGDGGWVDTYH
notes: ATG3, human, LIR motif stretch L94-H112; also called linear LIR^ATG3 peptide 5; source: synthetic peptide (chemically prepared)
By IC50 is commonly meant the concentration at which inhibition is half-maximal. For B2, in experiment [2], the IC50 is 104 µM.

B3: Cyclic peptide 6 (peptide)
chain: LEAIIEEDDGDGGWVDTYHC
modifications: thioether (positions not given here); not fully specified (bridges); also: cyclized by selective cysteine alkylation, partner of Cys not given here
Consider B3, for which the IC50 in experiment [2] was determined as 24 µM.
